Series [1] concerns the molecule itself. In words: SEC-MALS; highly oligomeric SEC peak; Superdex 200 10/300, 20 mM Tris-HCl pH 8.0, 150 mM NaCl, 0.4 ml/min, 25°C. On the technique in general: In gel filtration, larger molecules generally elute earlier.
Series [2] concerns the molecule itself. The experiment in a line: SEC-MALS; dimer-sized SEC peak; Superdex 200 10/300, 20 mM Tris-HCl pH 8.0, 150 mM NaCl, 0.4 ml/min, 25°C.

B1: MurG from Acinetobacter baumannii (abMurG), full length, wild type (enzyme, UniProt A3M9Y1 1-365, looked up)
chain: MTDSQQSKPKHVMMMAAGTGGHVFPALAVAKQLQQQGCQVSWLATPTGMENRLLKDQNIPIYQIDIQGVRGNGVIRKLAAPFKILKATFSAMRYMKQLKVDAVAGFGGYVAGPGGLAARLLGIPVLIHEQNAVAGFTNAQLSRVAKVVCEAFPNTFPASEKVVTTGNPVRREITDILSPKWRYDEREQADKPLNILIVGGSLGAKALNERLPPALKQLEVPLNIFHQCGQQQVEATQALYADAPANLTIQVLPFIEDMAKAYSEADLIICRAGALTVTEVATAGVAAVFVPLPIAVDDHQTANAKFLADIGAAKICQQSTMTPEVLNQLFTTLMNRQLLTEMAVKARQHAQPNATQHVVDLIQKM
notes: MurG glycosyltransferase of Acinetobacter baumannii, full length, amino acids Met1-Met365 (365 amino acids); Theoretical mass with the C-terminal His tag is printed as 39.4 kDa; Found as a dimer and as a hexamer in solution; only the large-size SEC peak crystallized; also called wild-type abMurG; source: E. coli BL21 (DE3), purified (nickel-nitrilotriacetic acid resin, SEC); not shown: His tag, …
Take B1: the stoichiometry N (in general, a count of units in the complex or per binding partner) in series [1] was found to be 6; in series [2], 2.

For the origin of these results see publication PMC8256705, “Putative hexameric glycosyltransferase functional unit revealed by the crystal structure of Acinetobacter baumannii MurG” (IUCrJ, 2021).
